The test system of data set [1] is HeLa cells. As to conditions: 2.5 μM, 30 min, 37 °C, heparin washes, phenol red-free medium.
Data set [2] concerns HeLa cells. As to conditions: Tat polymer 2.5 μM, chymotrypsin 1 μM, up to 14 h.

GSGSG [GSGSG polymer]: in data set [1], the “fluorescence in live cells, Z-stack 1 μm slices (in words)” value is given as “no fluorescence was seen”.
YGRKKRRQRRR [Tat polymer]: the “cell entry after incubation with chymotrypsin, time course (in words)” value in data set [2] is “retains the ability to enter cells”.

Source of the values: publication PMC4227725 (Journal of the American Chemical Society, 2014).
